From article PMC7700585, “Mechanistic Insights into the Allosteric Regulation of the Clr4 Protein Lysine Methyltransferase by Autoinhibition and Automethylation” (International Journal of Molecular Sciences, 2020)

Key:
[1] = molecular target: T1, Clr4 WT (Schizosaccharomyces pombe, UniProt O60016); assay: AdoMet dependence of Clr4 WT activity (MALDI-TOF); format: biochemical; details: 30 °C, Hill model
T1 construct: The plasmid encoding for SUMO- and His-tagged full-length Clr4 WT and different mutant variants were transformed into E. coli; SUMO; His; made in house; host or cells: E. coli BL21-CodonPlus (DE3)
Procedure: (§1) To investigate the Clr4 AdoMet dependency and the role that could be played by ARL automethylation in sensing AdoMet concentrations, steady-state kinetics were conducted at variable AdoMet concentrations. […] Afterwards, the methylation products were detected by MALDI-TOF mass spectrometry (Supplementary Figure S5). The Clr4 reaction rates were derived from the analysis of relative peak intensities of the different methylated histone peptides (Figure 6A,B).
(§2) Figure 6 AdoMet dependence of the activity of Clr4 WT and the K455R/K472R mutant. Fractions of methylated products observed with increasing AdoMet concentrations (2–50 µM) for Clr4 WT (A) or the automethylation-deficient K455R/K472R mutant (B). Data were obtained from the analysis of corresponding relative peak intensities measured by MALDI-TOF mass spectrometry in two to four independent experiments (see Supplementary Figure S5).
The reactions were halted by the addition of 0.1% trifluoroacetic acid (TFA). […] After that, the dried spots on the anchor plate were analyzed using an Autoflex Speed MALDI-TOF mass spectrometer (Bruker-Daltonics, Billerica, MA, USA). […] The collected spectra were then analyzed with Flex analysis software (Bruker Daltonics). The relative methylation levels were determined by using the corresponding peak intensities of the substrate peptide in different methylation states.

[2] = molecular target: Clr4 K455R/K472R (Schizosaccharomyces pombe, UniProt O60016, K455R/K472R); assay: AdoMet dependence of Clr4 K455R/K472R activity (MALDI-TOF); format: biochemical
Procedure: as §1, §2
(§3) The reactions were halted by the addition of 0.1% trifluoroacetic acid (TFA). All the samples were cleaned using C18 tips (Agilent Technologies, Santa Clara, CA, USA). The eluted samples were spotted on an anchor chip plate and allowed to dry completely. Later, 1 μL of HCCA matrix (0.7 mg/mL α-cyano-4 hydroxycinnamic acid dissolved in 85% acetonitrile, 0.1% TFA, 1 mM ammonium dihydrogen phosphate) was added to dried sample and allowed to dry again. After that, the dried spots on the anchor plate were analyzed using an Autoflex Speed MALDI-TOF mass spectrometer (Bruker-Daltonics, Billerica, MA, USA). The mass spectra were collected using the Flex control software (Bruker-Daltonics). For calibration, the peptide calibration standard (Bruker-Daltonics) with peptides ranging from 700 to 3200 Da was used. The collected spectra were then analyzed with Flex analysis software (Bruker Daltonics). The relative methylation levels were determined by using the corresponding peak intensities of the substrate peptide in different methylation states.

[3] = molecular target: T1, Clr4 WT; assay: MALDI-TOF detection of Clr4 WT methylation of histone peptides; format: biochemical; details: 4.5 µM peptide, 1 mM unlabeled AdoMet
Procedure: as §3

[4] = system: Clr4; assay: Radioactive in vitro automethylation of Clr4 WT and ARL variants (autoradiography); format: biochemical, Schizosaccharomyces pombe; details: for Automethylation level (relative value): relative to WT, mean ± S.D., two to four independent experiments, results with and without peptide combined, 0.45 µM Clr4, 2.4 µM H3K9me0 peptide, 0.76 µM [methyl-3H]-AdoMet, 50 mM Tris pH 8.8, 3 h, 30 °C; for change in automethylation, in words: compared to WT (triple mutant: compared to A454R); for decrease in automethylation compared to the WT enzyme (fold): autoradiography, normalized to WT
From the text: (§4) After the methylation reactions, the samples were separated by gel electrophoresis and the transfer of the radioactively labeled methyl groups from the cofactor to the respective target lysine residues in Clr4 and in the H3K9 peptide was visualized by autoradiography, analyzed quantitatively and normalized to WT (Figure 2 and Supplementary Table S1).
(§5) Figure 2 Methyltransferase activity and automethylation of different engineered Clr4 variants compared to wild type (WT). […] The red asterisks indicate the Clr4 automethylation signal. […] The mean values are indicated by the bars and the individual data points as circles. […] The p-values of the differences in automethylation and methyltransferase activities between WT and mutants are listed in Supplementary Table S1.
(§6) The reactions were stopped by the addition of Tricine-SDS-PAGE loading buffer followed by heating to 95 °C for 5 min. […] The signals of the transferred radioactively labeled methyl groups were detected by autoradiography using a Hyperfilm^TM high-performance autoradiography film (Merck), which was placed on the dried gels at −80 °C in the dark. Films were developed with an Optimax Typ TR machine after different exposure times. For quantification, the signal intensities were measured with ImageJ (https://imagej.nih.gov/ij/) and analyzed with Microsoft Excel (Microsoft, Redmond, WA, USA).

[5] = system: unmodified H3K9 peptide (H3K9me0); assay: Radioactive in vitro methyltransferase activity of Clr4 variants on H3K9 peptide; format: biochemical; details: for change in methyltransferase activity on the H3K9 peptide, in words: compared to WT (triple mutant: compared to A454R), low AdoMet (0.76 µM); for Methyltransferase activity (relative value): relative to WT, mean ± S.D., two to four independent experiments, 0.45 µM Clr4, 2.4 µM H3K9me0 (1–19) peptide, 0.76 µM [methyl-3H]-AdoMet, 50 mM Tris pH 8.8, 3 h, 30 °C
From the text: as §4, §5, §6

[6] = molecular target: T2, Clr4 A454R (Schizosaccharomyces pombe, UniProt O60016, A454R); format: biochemical
T2 construct: The plasmid encoding for SUMO- and His-tagged full-length Clr4 WT and different mutant variants were transformed into E. coli; SUMO; His; made in house; host or cells: E. coli BL21-CodonPlus (DE3)
Procedure: A reaction of WT enzyme incubated with 400 µM peptide was loaded on each gel as reference for the quantitative analysis.
The methylation reactions were performed using a peptide concentration range (25–400 µM) in methylation buffer (50 mM Tris pH 8.8, 10 mM MgCl2, 20 mM KCl, 1 mM DTT) supplemented with 0.76 µM radioactively labeled AdoMet (PerkinElmer) and 0.3 µM Clr4 WT or variants for 1 h at 30 °C.

[7] = system: C[S+](CC[C@H](N)C(=O)[O-])C[C@H]1O[C@@H](n2cnc3c(N)ncnc32)[C@H](O)[C@@H]1O; assay: AdoMet dependence of Clr4 K455R/K472R activity (MALDI-TOF); format: biochemical, Schizosaccharomyces pombe; details: other: Clr4 K455R/K472R 0.9 µM, H3K9me1 peptide 4.58 µM, AdoMet 0–50 µM, 50 mM Tris pH 8.8, 3 h, 30 °C, Michaelis–Menten model, mean ± SEM, two to four independent experiments
Procedure: as §1, §2, §3

[8] = molecular target: Clr4 wild type, SUMO- and His-tagged full-length (S. pombe, UniProt O60016 1-490); assay: cell-based or functional assay
[9] = molecular target: Clr4 A454R mutant, SUMO- and His-tagged full-length (S. pombe, UniProt O60016 1-490, A454R); assay: cell-based or functional assay

T1 sequence (O60016 whole entry): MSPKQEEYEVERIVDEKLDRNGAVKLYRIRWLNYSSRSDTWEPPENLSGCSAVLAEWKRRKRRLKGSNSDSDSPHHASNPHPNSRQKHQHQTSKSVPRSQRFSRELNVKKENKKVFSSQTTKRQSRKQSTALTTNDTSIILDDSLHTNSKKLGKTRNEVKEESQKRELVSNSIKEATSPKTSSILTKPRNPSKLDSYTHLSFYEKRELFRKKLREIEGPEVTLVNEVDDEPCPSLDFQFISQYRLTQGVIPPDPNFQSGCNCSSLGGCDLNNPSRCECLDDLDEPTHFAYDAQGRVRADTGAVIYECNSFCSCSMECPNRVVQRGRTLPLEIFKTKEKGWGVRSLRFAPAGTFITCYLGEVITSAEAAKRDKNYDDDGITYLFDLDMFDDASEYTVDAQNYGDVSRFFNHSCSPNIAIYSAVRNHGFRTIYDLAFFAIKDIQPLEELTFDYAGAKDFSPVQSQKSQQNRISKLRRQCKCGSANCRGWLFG
Chain of Clr4 K455R/K472R (O60016 whole entry K455R/K472R): as the sequence (O60016 whole entry) above, with K455R, K472R counted along it
T2 sequence (O60016 whole entry A454R): as the sequence (O60016 whole entry) above, with A454R counted along it

In the case of `C[S+](CC[C@H](N)C(=O)[O-])C[C@H]1O[C@@H](n2cnc3c(N)ncnc32)[C@H](O)[C@@H]1O` (stereo partly drawn) [AdoMet, S-adenosyl-L-methionine], the “N (Hill coefficient), Clr4 WT” value ([1]; Clr4 WT 0.9 µM, H3K9me1 peptide 4.58 µM, AdoMet 0–50 µM, pH 8.8, 3 h, mean ± SEM) is reported as 1.87 ± 0.19, the “n, Clr4 K455R/K472R” value ([2]; mutant data were fitted to the Michaelis–Menten model corresponding to an n-value of 1 (not a free parameter)) is reported as 1 and the “rel. vmax (AdoMet), Clr4 K455R/K472R” value ([2]; relative to WT activity, Clr4 K455R/K472R 0.9 µM, H3K9me1 peptide 4.58 µM, AdoMet 0–50 µM, pH 8.8, 3 h, 30 °C, Michaelis–Menten model, mean ± SEM) is reported as 0.71 ± 0.08.

In the case of `C[C@H](N)C(=O)N[C@@H](CCCNC(=N)N)C(=O)N[C@H](C(=O)N[C@@H](CCCCN)C(=O)N[C@@H](CCC(N)=O)C(=O)N[C@H](C(=O)N[C@@H](C)C(=O)N[C@@H](CCCNC(=N)N)C(=O)N[C@@H](CCCCN)C(=O)N[C@@H](CO)C(=O)N[C@H](C(=O)NCC(=O)NCC(=O)N[C@@H](CCCCN)C(=O)N[C@@H](C)C(=O)N1CCC[C@H]1C(=O)N[C@@H](CCCNC(=N)N)C(=O)N[C@@H](CCCCN)C(=O)N[C@@H](CCC(N)=O)C(N)=O)[C@@H](C)O)[C@@H](C)O)[C@@H](C)O` [H3K9me0], the “H3K9me1 product fraction after overnight incubation” value [3] is reported as 12%, the “H3K9me2 product fraction after overnight incubation” value [3] is reported as 42% and the “total methylation after overnight incubation” value [3] is reported as 54%.

“A454R: Clr4 variant, A454 in the ARL was mutated to R” was tested, and the “stronger automethylation compared to Clr4 WT (fold)” value ([4]; p-value = 0.012) was “about 3.4 fold”, the “Automethylation level (relative value)” value [4] was 3.4 ± 1.05 and the “change in methyltransferase activity on the H3K9 peptide, in words” value (shortened to “change in methyltransferase activity”) [5] was “approximately two-fold higher methyltransferase activity”. The “Methyltransferase activity (relative value)” value [5] was 1.9 ± 0.33, the “activity at low concentrations of both histone peptides” value ([6]; A454R compared to WT, H3K9me0 and H3K9me1, Figure S4) was “higher activity compared to the WT” and the “Vmax difference A454R vs WT” value ([6]; histone peptides, AdoMet 0.76 µM) was “minor”.

Molecule “Clr4 K455R/K472R (Schizosaccharomyces pombe 972h-; K455R/K472R)” has a Km [7] of 13.6 ± 1.0 µM.

For “Clr4 WT: S. pombe H3K9 protein lysine methyltransferase Clr4, wild type”, the “reaction rate response towards increasing AdoMet concentration, Clr4 WT” value ([1]; AdoMet 2–50 µM, H3K9me1 peptide, 3 h) was “sigmoidal response”.

For “D456S/F457T: Clr4 variant, D456 and F457 were mutated to S and T”, the “change in automethylation, in words” value [4] was “no significant change in automethylation”, the “Automethylation level (relative value)” value [4] was 1.2 ± 0.33 and the “change in methyltransferase activity” value [5] was “no significant change in automethylation and methyltransferase activity”. For the same molecule, the “Methyltransferase activity (relative value)” value [5] was 1.2 ± 0.14.

For “K455M: Clr4 variant in which the target lysine in the ARL, K455, was mutated to M”, the “change in automethylation, in words” value [4] was “strong reduction in automethylation (about four-fold”, the “Automethylation level (relative value)” value [4] was 0.23 ± 0.05 and the “reduction in H3K9 peptide methyltransferase activity” value ([5]; less active than WT, p-value = 0.0004) was 30%. For the same molecule, the “Methyltransferase activity (relative value)” value [5] was 0.7 ± 0.09.

“K455R/K472R: ARL automethylation-deficient Clr4 mutant” was tested, and the “decrease in automethylation compared to the WT enzyme (fold)” value [4] was about 2.2 fold, the “Automethylation level (relative value)” value [4] was 0.46 ± 0.15 and the “change in methyltransferase activity” value [5] was “not accompanied by a corresponding reduction in activity”. The “Methyltransferase activity (relative value)” value [5] was 0.91 ± 0.08 and the “reaction rate response towards increasing AdoMet concentration, K455R/K472R” value ([2]; AdoMet 2–50 µM, H3K9me1 peptide, 3 h, 30 °C, Michaelis–Menten model) was “regular hyperbolic shape”.

In the case of “K455R: automethylation-deficient Clr4 mutant”, the “decrease in automethylation compared to the WT enzyme (fold)” value [4] is reported as “about 1.4 fold”, the “Automethylation level (relative value)” value [4] is reported as 0.7 ± 0.08 and the “change in methyltransferase activity” value [5] is reported as “not accompanied by a corresponding reduction in activity”. For the same molecule, the “Methyltransferase activity (relative value)” value [5] was 1.1 ± 0.008.

In the case of ARTKQTARKSTGGKAPRK (peptide, UniProt P68431 2-19, looked up, monomethyl-lysine at 9; biotin (end not stated)) [H3K9me1-biotin (1–18) peptide], the “Km of peptide methylation (steady-state kinetics, Michaelis–Menten fit, 0.76 µM AdoMet)” value [8] is reported as 16.4 µM and the “Km of peptide methylation (steady-state kinetics, Michaelis–Menten fit, 0.76 µM AdoMet)” value [9] is reported as 5.5 µM.

B1: A454R/D456S/F457T: Clr4 triple mutant, all of the exchanges combined in one mutant (protein, UniProt O60016 1-490, looked up, variant A454R D456S F457T)
Histone-lysine …: MSPKQEEYEVERIVDEKLDRNGAVKLYRIRWLNYSSRSDTWEPPENLSGCSAVLAEWKRRKRRLKGSNSDSDSPHHASNPHPNSRQKHQHQTSKSVPRSQRFSRELNVKKENKKVFSSQTTKRQSRKQSTALTTNDTSIILDDSLHTNSKKLGKTRNEVKEESQKRELVSNSIKEATSPKTSSILTKPRNPSKLDSYTHLSFYEKRELFRKKLREIEGPEVTLVNEVDDEPCPSLDFQFISQYRLTQGVIPPDPNFQSGCNCSSLGGCDLNNPSRCECLDDLDEPTHFAYDAQGRVRADTGAVIYECNSFCSCSMECPNRVVQRGRTLPLEIFKTKEKGWGVRSLRFAPAGTFITCYLGEVITSAEAAKRDKNYDDDGITYLFDLDMFDDASEYTVDAQNYGDVSRFFNHSCSPNIAIYSAVRNHGFRTIYDLAFFAIKDIQPLEELTFDYAGRKSTSPVQSQKSQQNRISKLRRQCKCGSANCRGWLFG
For B1, the “change in automethylation, in words” value [4] was “no significant difference from the A454R single mutant”, the “Automethylation level (relative value)” value [4] was 2.7 ± 0.66 and the “change in methyltransferase activity” value [5] was “no significant difference from the A454R single mutant”. The “Methyltransferase activity (relative value)” value [5] was 1.7 ± 0.02.
